Data: the supplement of paper PMC6757056
± gives the standard deviation of the averaged measurements.

B1: library; a variant is named by its letters at N, in order (parent)
chain: GCUGUCACCGAGAAACUGUGAAGUAUAUCUUAAACCUGGGCACUUAAAAGAUAUAUGGAGUUAGUAGUGCAACCUGCUCGGUCUGAUGAGUCCNNNNNNGGACGAAACAGC

What was measured:
cyclic di-GMP [1] = variants of: B1; assay: normalized RNA/DNA level without ligand (relative to sTRSVctl = 100) (log10 (% of sTRSVctl)); HEK293T; ligand: cyclic di-GMP (c-di-GMP-II aptamer); higher = less ribozyme self-cleavage, higher mRNA level; conditions: reporter: mCherry (pCS4076), ligand present: no
Procedure, shortened: (§1)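 HEK293T cells received ligand, where used, 1 h before being transfected with 4 µg per 6-well well of library plasmids encoding reporter-linked ribozyme switches. After 72 h, RNA was extracted with EDTA and sequenced. RNA level was derived from RNA reads per DNA read, normalized to a spiked-in non-cleaving sequence or the top sequences, then scaled and log-transformed. Values were ×100 then log10, the top set was 25 sequences, and the minimum was 100 DNA reads.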

cyclic di-GMP [2] = variants of: B1; assay: normalized RNA/DNA level with ligand (relative to sTRSVctl = 100) (log10 (% of sTRSVctl)); HEK293T; ligand: cyclic di-GMP (c-di-GMP-II aptamer); ligand concentration (+) RNA-Seq: 1 mM; higher = less ribozyme self-cleavage, higher mRNA level; conditions: reporter: mCherry (pCS4076), ligand present: yes
Procedure, shortened: as §1

| Variant | normalized RNA/DNA level without ligand (log10) (cyclic di-GMP [1]) | normalized RNA/DNA level with ligand (log10) (cyclic di-GMP [2]) |
| --- | --- | --- |
| GCGUAA | 1.44 ± 0.091 | 1.61 ± 0.096 |
| UACAUG | 1.711 ± 0.013 | 1.85 ± 0.14 |
| GGAAGC | 1.634 ± 0.0082 | 1.76 ± 0.054 |
| CACCAU | 1.593 ± 0.0031 | 1.75 ± 0.11 |
| UACUCU | 1.73 ± 0.053 | 1.84 ± 0.07 |
| AGACAU | 1.62 ± 0.027 | 1.79 ± 0.12 |
| AUUCGA | 1.58 ± 0.023 | 1.71 ± 0.066 |
| CGUAAC | 1.557 ± 0.0076 | 1.72 ± 0.091 |
| CUAACA | 1.662 ± 0.0013 | 1.78 ± 0.09 |
| ACUCGG | 1.72 ± 0.074 | 1.76 ± 0.2 |
| ACCUCU | 1.716 ± 0.0081 | 1.87 ± 0.1 |
| CCUAUC | 1.63 ± 0.075 | 1.79 ± 0.077 |
| UUAGAG | 1.63 ± 0.0024 | 1.76 ± 0.047 |
| GUCGGU | 1.67 ± 0.039 | 1.83 ± 0.062 |
| GUCCGG | 1.84 ± 0.12 | 1.96 ± 0.11 |
| UCGGGG | 1.69 ± 0.06 | 1.83 ± 0.11 |
| UACAGU | 1.62 ± 0.021 | 1.8 ± 0.069 |
| AAUUCU | 1.769 ± 0.0077 | 1.9 ± 0.092 |
| AUUGCU | 1.73 ± 0.047 | 1.88 ± 0.081 |
| AAUCCG | 1.83 ± 0.037 | 1.93 ± 0.028 |
| UGCUUA | 1.75 ± 0.023 | 1.87 ± 0.095 |
| UGAAUU | 1.683 ± 0.0066 | 1.84 ± 0.13 |
| CGAUUU | 1.43 ± 0.11 | 1.64 ± 0.13 |
| CUAGUA | 1.56 ± 0.046 | 1.7 ± 0.04 |

| Variant | normalized RNA/DNA level without ligand (log10) (cyclic di-GMP [1]) | normalized RNA/DNA level with ligand (log10) (cyclic di-GMP [2]) |
| --- | --- | --- |
| GUAAAC | 1.57 ± 0.017 | 1.74 ± 0.038 |
| GACACC | 1.71 ± 0.044 | 1.83 ± 0.075 |
| CCUUCG | 1.74 ± 0.0028 | 1.87 ± 0.14 |
| UUAUCA | 1.76 ± 0.11 | 1.91 ± 0.14 |
| AUCUUA | 1.61 ± 0.037 | 1.76 ± 0.12 |
| GUGCCA | 1.785 ± 0.015 | 1.9 ± 0.12 |
| CAUAGA | 1.54 ± 0.073 | 1.69 ± 0.031 |
| UAAAGC | 1.676 ± 0.0024 | 1.82 ± 0.1 |
| ACAGAC | 1.49 ± 0.056 | 1.71 ± 0.049 |
| CCGGCG | 1.69 ± 0.023 | 1.77 ± 0.05 |
| UAUCCC | 1.83 ± 0.0035 | 1.9 ± 0.055 |
| GUAUGG | 1.53 ± 0.16 | 1.7 ± 0.042 |
| AUCUCA | 1.666 ± 0.0097 | 1.78 ± 0.16 |
| ACUUAA | 1.49 ± 0.085 | 1.68 ± 0.13 |
| CACGGC | 1.747 ± 0.0044 | 1.89 ± 0.11 |
| UAGUCG | 1.8 ± 0.021 | 1.91 ± 0.14 |
| AAGUGU | 1.6 ± 0.034 | 1.76 ± 0.14 |
| GGGAGC | 1.625 ± 0.0022 | 1.76 ± 0.1 |
| UGAGAU | 1.608 ± 0.0039 | 1.78 ± 0.11 |
| UGCAGU | 1.66 ± 0.038 | 1.83 ± 0.11 |
| GUCCUC | 1.75 ± 0.026 | 1.9 ± 0.1 |
| GCCGCG | 1.79 ± 0.03 | 1.92 ± 0.07 |
| AGGCAA | 1.45 ± 0.082 | 1.6 ± 0.11 |
| CCCAGC | 1.72 ± 0.03 | 1.84 ± 0.16 |

| Variant | normalized RNA/DNA level without ligand (log10) (cyclic di-GMP [1]) | normalized RNA/DNA level with ligand (log10) (cyclic di-GMP [2]) |
| --- | --- | --- |
| CAGGAC | 1.715 ± 0.017 | 1.81 ± 0.1 |
| UUAACC | 1.78 ± 0.073 | 1.85 ± 0.14 |
| ACUACU | 1.68 ± 0.041 | 1.82 ± 0.14 |
| UUGCAU | 1.669 ± 0.0095 | 1.81 ± 0.081 |
| AUUAAG | 1.55 ± 0.041 | 1.75 ± 0.14 |
| UUUCAG | 1.75 ± 0.022 | 1.86 ± 0.1 |
| CCGGGU | 1.69 ± 0.066 | 1.81 ± 0.15 |
| UGGAUU | 1.669 ± 0.0092 | 1.81 ± 0.13 |
| CAUGUU | 1.72 ± 0.043 | 1.88 ± 0.085 |
| AUGCGG | 1.74 ± 0.024 | 1.82 ± 0.098 |
| GAGCUC | 1.83 ± 0.052 | 1.91 ± 0.15 |
| AGGUUG | 1.7 ± 0.022 | 1.77 ± 0.1 |
| UAAAAA | 1.65 ± 0.048 | 1.78 ± 0.12 |
| ACAGGG | 1.5 ± 0.11 | 1.58 ± 0.15 |
| AAUCAC | 1.71 ± 0.027 | 1.83 ± 0.096 |
| UCGACG | 1.73 ± 0.0042 | 1.87 ± 0.099 |
| AUAUCA | 1.63 ± 0.032 | 1.79 ± 0.12 |
| CGCGGC | 1.74 ± 0.03 | 1.87 ± 0.11 |
| CAACAG | 1.6987 ± 0.0016 | 1.85 ± 0.13 |
| GUUGGC | 1.61 ± 0.022 | 1.79 ± 0.09 |
| UCAGGA | 1.45 ± 0.071 | 1.67 ± 0.099 |
| AAAGUG | 1.52 ± 0.099 | 1.67 ± 0.074 |
| AUUCCU | 1.74 ± 0.044 | 1.86 ± 0.1 |
| GUUGUG | 1.66 ± 0.09 | 1.82 ± 0.079 |

| Variant | normalized RNA/DNA level without ligand (log10) (cyclic di-GMP [1]) | normalized RNA/DNA level with ligand (log10) (cyclic di-GMP [2]) |
| --- | --- | --- |
| UACGUU | 1.684 ± 0.0031 | 1.84 ± 0.093 |
| UUGCGG | 1.84 ± 0.045 | 1.94 ± 0.04 |
| GCCUGG | 1.78 ± 0.061 | 1.91 ± 0.09 |
| UAAUGG | 1.676 ± 0.013 | 1.81 ± 0.087 |
| UCUCCC | 1.81 ± 0.073 | 1.92 ± 0.14 |
| UUAGUU | 1.77 ± 0.019 | 1.86 ± 0.14 |
| UGGUAA | 1.56 ± 0.095 | 1.79 ± 0.096 |
| CUCCUC | 1.76 ± 0.026 | 1.87 ± 0.11 |
| CGGAAC | 1.45 ± 0.077 | 1.62 ± 0.14 |
| CAGAAG | 1.68 ± 0.039 | 1.86 ± 0.092 |
| UGAGGG | 1.63 ± 0.045 | 1.79 ± 0.083 |
| UGCCAG | 1.7634 ± 0.0015 | 1.87 ± 0.087 |
| UAGGCC | 1.819 ± 0.0024 | 1.9 ± 0.095 |
| UGGACA | 1.712 ± 0.0091 | 1.83 ± 0.11 |
| GUCUGA | 1.54 ± 0.018 | 1.75 ± 0.11 |
| AGUCCC | 1.77 ± 0.042 | 1.87 ± 0.069 |
| UAUAAC | 1.697 ± 0.015 | 1.85 ± 0.12 |
| AGUCCA | 1.663 ± 0.0054 | 1.78 ± 0.049 |
| CCUGAU | 1.6 ± 0.021 | 1.78 ± 0.14 |
| CGCGAU | 1.58 ± 0.05 | 1.79 ± 0.14 |
| UAUAAU | 1.66 ± 0.063 | 1.8 ± 0.099 |
| UUAUGC | 1.73 ± 0.012 | 1.81 ± 0.1 |
| UAAGCU | 1.7 ± 0.031 | 1.83 ± 0.097 |
| UACAUA | 1.712 ± 0.017 | 1.86 ± 0.065 |

| Variant | normalized RNA/DNA level without ligand (log10) (cyclic di-GMP [1]) | normalized RNA/DNA level with ligand (log10) (cyclic di-GMP [2]) |
| --- | --- | --- |
| GUCAAG | 1.57 ± 0.031 | 1.75 ± 0.077 |
| UGUUAU | 1.6763 ± 0.0012 | 1.84 ± 0.14 |
| GAAUUA | 1.55 ± 0.026 | 1.74 ± 0.097 |
| UUGGGG | 1.61 ± 0.057 | 1.78 ± 0.094 |
| UGGUCA | 1.78 ± 0.061 | 1.89 ± 0.067 |
| CAUGCA | 1.52 ± 0.05 | 1.66 ± 0.067 |
| UCCUAU | 1.63 ± 0.085 | 1.8 ± 0.097 |
| GGGGCA | 1.752 ± 0.011 | 1.88 ± 0.081 |
| UACAAU | 1.64 ± 0.017 | 1.77 ± 0.13 |
| AAUACA | 1.56 ± 0.017 | 1.74 ± 0.1 |
| GUCACC | 1.708 ± 0.011 | 1.85 ± 0.055 |
| GCAACU | 1.582 ± 0.0092 | 1.77 ± 0.13 |
| AUCGUA | 1.511 ± 0.0037 | 1.72 ± 0.16 |
| GAAACU | 1.63 ± 0.035 | 1.79 ± 0.1 |
| GAUCCG | 1.88 ± 0.068 | 1.95 ± 0.15 |
| CUACGG | 1.8 ± 0.061 | 1.89 ± 0.08 |
| AUGUGG | 1.59 ± 0.051 | 1.72 ± 0.081 |
| AUAAGU | 1.55 ± 0.033 | 1.73 ± 0.12 |
| UGCAGC | 1.77 ± 0.031 | 1.87 ± 0.11 |
| CCGCUC | 1.66 ± 0.029 | 1.85 ± 0.094 |
